# Substitutions are numbered along the chain they refer to. “Also recorded” adds a separate entry of the source.
# B1: FR2-10: anti-human FGFR2 rat monoclonal antibody obtained by the method described in Example 1; VH SEQ ID NO: 12, VL SEQ ID NO: 21 (antibody, listed as Rattus norvegicus, V domains shown)
# VH: EVQLVESGGGLVQPGRSLKLSCVASGFRFNDFWMTWIRQAPGKGLEWVASITYTGDNTYYAGSVKGRITISRDNAKSTLYLQMNSLRSEDTATYYCTRDDYGGYSPYYMDAWGQGTSVTVSS
# VL: DIQMTQSPSSLSAFLGDRVTITCRASQDIGNYLRWFQQKPGKSPRLMIYGATNLANGVPSRFSGSRSGSDYSLTINNLESEDMAIYYCLKHNEYPFTFGSGTKLEIKRA
# B2: FR2-13: anti-human FGFR2 rat monoclonal antibody obtained by the method described in Example 1; VH SEQ ID NO: 14, VL SEQ ID NO: 24 (antibody, listed as Rattus norvegicus, V domains shown)
# VH: QVKLLQSGAELVKPGASVKLSCKTSGFTFSTSYMSWLKQVPGPSIEWIGWIYAGDGGTKYNQKFKGKATLTVDKSSSTAYMDLSSLTSEDAAVYFCATDGYGDWFAYWGQGTLVTVSS
# VL: DIQMTQSPASLSASLGETVTIECRASEDIYSNLAWYQQKPGNSPQLLIYDANILADGVPSRFSGSGSGTQYSLKINSLQSEDVASYFCQQYNNYPPFTFGVGTKLELKRA
# B3: FR2-14: anti-human FGFR2 rat monoclonal antibody obtained by the method described in Example 1; VH SEQ ID NO: 16, VL SEQ ID NO: 26 (antibody, listed as Rattus norvegicus, V domains shown)
# VH: B2 VH with I45T, S75F, A106T
# VL: B2 VL with V101A
# What was measured:
# [1] = system: FGFR2, FRS2, and ERK phosphorylation in stomach cancer cell line SNU-16; assay: FGFR2 signal inhibitory effect on SNU-16 by Western blotting; type: cell-based, human; settings: FGF7 10 ng/ml, 10 minutes
# Method: The FGFR2 signal inhibitory effect of the obtained antibody was tested using a stomach cancer cell line SNU-16 endogenously expressing FGFR2. SNU-16 cells (3×10^6) suspended in an RPMI medium containing 0.1% bovine serum albumin were seeded onto a 12-well plate and incubated overnight. The rat FR2-10 antibody was added thereto, and the cells were incubated at 37° C. for 1 hour. Then, 10 ng/ml FGF7 (manufactured by R&D systems, Inc.) was added thereto, and the cells were further incubated for 10 minutes. Subsequently, the cells were lysed with an RIPA buffer (1% NP-40, 0.5% sodium deoxycholate, and 0.1% SDS in PBS) containing Complete Mini (manufactured by Roche Applied Science) and a phosphatase inhibitor (manufactured by Nacalai Tesque Inc.). The lysates were centrifuged to obtain the cell lysis solution, and the protein concentration was determined using BCA protein assay (manufactured by Pierce Biotechnology, Inc.). The lysates were resuspended in a DTT-containing buffer and denatured at 99° C. for 5 minutes. The protein (20 μg/lane) was separated by SDS-PAGE on a 5 to 20% gel. The protein was blotted onto a PVDF membrane (manufactured by Bio-Rad Laboratories, Inc.). The membrane was blocked with TBS-T (2 mM Tris, 50 mM NaCl, and 0.1% Tween-20 (pH 7.4)) containing 5% skimmed milk (MEGMILK SNOW BRAND Co., Ltd.) at room temperature for 1 hour. […]
# human FGFR2 IIIc = target: T1, human FGFR2 IIIc (Homo sapiens, UniProt P21802); assay: Elk1 luciferase reporter gene assay, FGFR2 IIIc-expressing 293α cells, ligand FGF9; type: cell-based; settings: antibody preincubated 1 hour; FGF9 10 ng/ml, 6 hours
# T1 construct: a human FGFR2 IIIc variant protein (isoform 1: NP_000132); expressed in transfected cells; host or cells: 293α cells (HEK293 stably transfected with integrin αv and β3)
# T1 sequence (P21802 22-821): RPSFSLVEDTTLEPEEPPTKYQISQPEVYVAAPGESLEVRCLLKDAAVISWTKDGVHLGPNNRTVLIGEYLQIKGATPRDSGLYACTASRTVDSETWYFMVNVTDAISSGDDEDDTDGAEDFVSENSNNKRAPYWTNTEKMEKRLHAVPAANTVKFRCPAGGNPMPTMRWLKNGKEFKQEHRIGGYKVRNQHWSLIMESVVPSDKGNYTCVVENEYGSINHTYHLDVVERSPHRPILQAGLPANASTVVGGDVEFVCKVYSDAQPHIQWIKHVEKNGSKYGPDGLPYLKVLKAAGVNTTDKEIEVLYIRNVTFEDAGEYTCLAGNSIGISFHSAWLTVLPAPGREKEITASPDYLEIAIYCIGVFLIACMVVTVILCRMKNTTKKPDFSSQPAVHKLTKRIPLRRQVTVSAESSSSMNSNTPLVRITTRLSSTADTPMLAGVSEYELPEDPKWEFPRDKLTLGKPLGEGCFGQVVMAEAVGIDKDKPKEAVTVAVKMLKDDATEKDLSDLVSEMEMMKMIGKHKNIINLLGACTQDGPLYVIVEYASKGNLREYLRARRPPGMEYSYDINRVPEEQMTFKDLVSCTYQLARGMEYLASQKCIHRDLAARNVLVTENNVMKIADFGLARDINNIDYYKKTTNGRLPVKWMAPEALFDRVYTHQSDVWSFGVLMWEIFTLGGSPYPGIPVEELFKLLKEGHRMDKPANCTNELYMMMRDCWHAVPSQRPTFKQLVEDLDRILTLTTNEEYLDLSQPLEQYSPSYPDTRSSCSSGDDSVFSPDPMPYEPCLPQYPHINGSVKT
# Method: The Elk1 luciferase reporter gene assay was carried out using each hybridoma culture supernatant selected in Example 1)-5. A cell line 293α, which was HEK293 cells stably transfected with integrin αv and integrin β3 expression vectors, was transiently cotransfected with pcDNA-DEST40-FGFR2 IIIb or pcDNA-DEST40, pFA2-Elk1 (manufactured by Stratagene Corp.), pFR-Luc2CP, and pGL4.74[hRluc/TK] (manufactured by Promega Corp.) according to transfection procedures using Lipofectamine 2000 (manufactured by Invitrogen Corp.), inoculated to a white 96-well cell culture plate (manufactured by Corning Inc.), and cultured overnight at 37° C. under 5% CO2 conditions. On the next day, the culture supernatant was removed, and the hybridoma culture supernatant diluted 5-fold with DMEM containing 5% FBS was added at a concentration of 50 μl/well to the plate. […] The firefly/Renilla ratio was calculated to normalize data on each well.
# In order to evaluate the signal-neutralizing effects of the obtained antibodies by the Elk1 luciferase reporter gene assay, 293α cells were cotransfected with pcDNA-DEST40-FGFR2 IIIb or pcDNA-DEST40-FGFR2 IIIc constructed in Example 1)-3-1, pFA2-Elk1 (manufactured by Stratagene Corp.), pFR-Luc2CP, and pGL4.74[hRluc/TK] […] The firefly/Renilla ratio was calculated to normalize data on each well. […]
Molecule,"phosphorylation of FGFR2, FRS2, and ERK induced by FGF7 [1]",ligand FGF9 dependent reporter activation in the FGFR2 IIIc-expressing cells (human FGFR2 IIIc)
B1,"inhibited FGFR2, FRS2, and ERK phosphorylation; also recorded: inhibited the increase in the phosphorylation of these molecules in a concentration dependent manner",
B2,,inhibited
B3,,inhibited

# From patent US9931401B2, “Combination comprising anti-fibroblast growth factor receptor 2 (FGFR2) antibody and a tyrosine kinase inhibitor” (Daiichi Sankyo Company, Limited, priority 2013, dated 2018)
